Results on two molecules are retold here after patent US20120156198A1 (Hoffmann-La Roche, published 2012).

Experiment [1] concerns the target T1, recombinant human IL-18Rα Fc chimera (R&D Systems, Cat. No. 816-LR) (human, UniProt Q13478 19-329).
T1 construct: Bought protein; also called hIL-18Rα (hFc-chimera R&D-Systems 816-LR); recombinant human IL-18Rα-Fc fusion protein; not shown: human Fc of the commercial chimera
T1 sequence: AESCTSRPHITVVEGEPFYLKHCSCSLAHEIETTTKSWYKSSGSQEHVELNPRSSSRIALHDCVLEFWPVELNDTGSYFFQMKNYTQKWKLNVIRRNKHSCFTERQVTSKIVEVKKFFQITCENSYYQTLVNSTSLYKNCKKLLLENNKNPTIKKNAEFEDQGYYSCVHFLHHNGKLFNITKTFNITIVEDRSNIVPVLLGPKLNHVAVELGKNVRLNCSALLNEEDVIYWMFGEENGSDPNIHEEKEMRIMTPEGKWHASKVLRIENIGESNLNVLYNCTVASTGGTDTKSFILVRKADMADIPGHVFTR
Description: ELISA, hFc fusion protein captured on anti-human Fc. Here is the method:
(§1) The test was performed on 384-well microtiter plates (MaxiSorp™, Thermo Scientific Nunc, DK, Cat. No. 464718) at RT. After each incubation step, plates were washed 3 times with PBST. At the beginning, plates were coated with 0.5 μg/ml goat anti-human IgG Fc fragment (Jackson 1 mm. Res., US, Cat. No. 109-006-170) for at least 2 hours (h). Thereafter the wells were blocked with PBS supplemented with 0.2% Tween®-20 and 2% BSA (Roche Diagnostics GmbH, DE) for 1 h. 0.2 μg/ml of recombinant human IL-18Rα-Fc fusion protein (R&D Systems, UK, Cat. No. 816-LR) was captured on plate for 1 h. For testing the binding of antibodies to other proteins of the IL-1 receptor family 0.2 μg/ml of the following recombinant human proteins conjugated to human Fc (hFc) were captured: [0194] rhIL-1RI/hFc (R&D Systems, UK, Cat. No. 269-1R) [0195] rhIL-1sRII/hFc (R&D Systems, UK, Cat. No. 263-2R) [0196] rhIL-1R3/hFc (R&D Systems, UK, Cat. No. 676-CP) [0197] rhIL-2Rα/hFc (R&D Systems, UK, Cat. No. 1020-RL) [0198] rhIL-7Rα/hFc (R&D Systems, UK, Cat. No. 306-IR) [0199] rhIL-15R/hFc (R&D Systems, UK, Cat. No. 147-IR) [0200] rhST-2/hFc (R&D Systems, UK, Cat. No. 523-ST)
(§2) After washing the plate, dilutions of purified antibodies in PBS with 0.05% BSA and 0.2% Tween®-20 were incubated with the receptor proteins for 1 h. Binding of antibodies was detected with 1:2000 diluted horseradish peroxidase (HRP)-conjugates of anti-mouse IgG (GE Healthcare, UK, Cat. No. NA9310V). After 1 h the plates were washed 6 times with PBST and developed with freshly prepared BM Blue® POD substrate solution (BM Blue®: 3,3″-5,5″-Tetramethylbenzidine, Roche Diagnostics GmbH, DE, Cat. No. 11484281001) for 30 minutes at RT. Absorbance was measured at 370 nm. The values were corrected for the control without antibody.
Background: In an ELISA, binding on a coated surface is turned into a signal by an enzyme label.

For experiment [2], the target named is T2, rhIL-1RI/hFc (R&D Systems, Cat. No. 269-1R) (human, UniProt P14778 18-332).
T2 construct: Bought; not shown: human Fc (hFc) of the commercial protein
T2 sequence (looked up): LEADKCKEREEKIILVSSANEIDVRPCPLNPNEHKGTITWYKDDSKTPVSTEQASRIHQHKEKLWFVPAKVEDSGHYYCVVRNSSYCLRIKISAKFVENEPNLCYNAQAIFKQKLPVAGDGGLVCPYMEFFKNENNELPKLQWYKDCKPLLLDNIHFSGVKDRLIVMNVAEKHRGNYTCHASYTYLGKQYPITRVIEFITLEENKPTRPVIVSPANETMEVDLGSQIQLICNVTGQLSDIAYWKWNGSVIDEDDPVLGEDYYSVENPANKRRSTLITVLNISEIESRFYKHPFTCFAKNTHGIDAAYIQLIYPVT
The experiment is described as above. Here is the method:
as §1, §2

For experiment [3], the target named is T3, rhIL-15R/hFc (R&D Systems, Cat. No. 147-IR) (human, UniProt Q13261 31-205).
T3 construct: Bought; not shown: human Fc (hFc) of the commercial protein
The experiment is described as above. How it is done: as §1, §2

For experiment [4], the target named is T1, recombinant human IL-18Rα Fc chimera …. As to the kind of experiment: competition ELISA: inhibition of biotinylated IL-18 (+IL-18Rβ) binding to captured IL-18Rα Fc chimera. Here is the method: The test was performed on 384 well microtiter plates at room temperature (RT). After each incubation step plates were washed 3 times with PBST (Phosphate Buffered Saline Tween®-20). At the beginning, plates were coated with 0.5 μg/ml goat anti-human IgG Fc fragment (Jackson 1 mm. Res., US, Cat. No. 109-006-170) for at least 2 hours (h). Thereafter the wells were blocked with PBS supplemented with 0.1% Tween®-20 and 2% BSA (Roche Diagnostics GmbH, DE) for 1 h. 0.2 μg/ml of recombinant human IL-18Rα Fc chimera (R&D Systems, UK, Cat. No. 816-LR) was captured for 1 h. Dilutions of purified antibodies in PBS with 0.5% BSA and 0.05% Tween®-20 were incubated with the receptor protein for 1 h. Biotinylated human IL-18 (MBL International, US, Cat. No. B003-5) and 0.2 μg/ml IL-18R13 (R&D Systems, UK, Cat. No. 118-AP) were added for an additional hour to build up the trimeric complex. IL-18 was biotinylated with Sulfo-NHS-LC-Biotin (Thermo Scientific Pierce, US, Cat. No. 21327) according to the manufacturer's protocol and purified using Zeba™ Desalt Spin Column (Thermo Scientific Pierce, US, Cat. No. 89889). Binding of the biotinylated IL-18 to the complex was detected with 1:2000 diluted streptavidin HRP (Roche Diagnostics GmbH, DE, Cat. No. 11089153001). […] Absorbance was measured at 370 nm. […]

Values joined by “and” are separate entries in the source; they are usually repeats but may differ in a detail not shown here. Equal entries are not always repeated.

T3 sequence (Q13261 31-205): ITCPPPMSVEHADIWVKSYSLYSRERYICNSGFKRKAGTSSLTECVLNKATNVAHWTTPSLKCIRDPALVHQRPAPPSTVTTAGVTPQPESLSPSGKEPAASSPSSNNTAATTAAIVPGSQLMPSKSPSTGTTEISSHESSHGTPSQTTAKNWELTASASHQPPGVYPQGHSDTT

B1: Mab 1G12 (antibody, V domains shown)
VH: QVQLQQPGAELVKPGASVRMSCKTSDYTFTSNWMHWVKQRPGQGLEWIGTIDPSDSYTYYNQKFKGRATLTVDTSSSTAYMQLSSLTSEDSAVYYCTTSGDYDADRYFDVWGAGTTVTVSS
VL: DIVLTQSPASLGVSLGQRATISCRASKSVSTSGDSYMHWYQQKPGQSPKLLIYLASNLESGVPARFSGSGSGTDFTLNIHPVEEEDAATYYCQQSRELPLSFGAGTKLELK
notes: Monoclonal antibody from immunized NMRI mice; detected with anti-mouse IgG1-PE / anti-mouse IgG; also called F20.1G12; monoclonal antibody 1G12
Turning to B1, the entries for the “absorbance at 370 nm (corrected for the control without antibody)” value in experiment [1], in experiment [2] and in experiment [3] were 2.43, 0.01 and 0.04, respectively. Besides, the concentration for half-maximal inhibition (IC50) (as a rule, the midpoint of a concentration-inhibition curve) in experiment [4] was 0.022 µg/mL and 0.15 nM.

B2: Mab 2D11 (antibody, V domains shown)
VH: QVQLQQPGAELVKPGASVKMSCKASDYTFTSNWMHWVKQRPGQGLEWIGTIDPSDSYTYYNQKFKGKATLTVDTSSSTAYMHLSSLTSEDSAVYYCTTSGDYDADRYFDVWGAGTTVTVSS
VL: DIVLTQSPASLGVSLGQRATISCRASKSVSTSGDSYMHWYQQKPGQSPKLLIYLASNLESGVPARFSGSGSGTDFTLNIHPVEEEDAATYYCQQSRELPLSFGAGTKLELK
notes: Monoclonal antibody from immunized NMRI mice; detected with anti-mouse IgG1-PE / anti-mouse IgG; also called F20.2D11
For the molecule B2, the “absorbance at 370 nm (corrected for the control without antibody)” value in experiment [1] is 2.56; in experiment [2] it was 0.02; in experiment [3], 0.19. For the same molecule, in experiment [4], the IC50 was 0.029 µg/mL and 0.19 nM.
